Experimental data from patent US20230212549A1, “COMPOUNDS COMPRISING A […] LIGAND AND USE THEREOF” (priority 2021, published 2023).
Bridge positions count the residues as written; N and C are the ends.

T1: alpha 2A (h) (human), P08913
T1 chain: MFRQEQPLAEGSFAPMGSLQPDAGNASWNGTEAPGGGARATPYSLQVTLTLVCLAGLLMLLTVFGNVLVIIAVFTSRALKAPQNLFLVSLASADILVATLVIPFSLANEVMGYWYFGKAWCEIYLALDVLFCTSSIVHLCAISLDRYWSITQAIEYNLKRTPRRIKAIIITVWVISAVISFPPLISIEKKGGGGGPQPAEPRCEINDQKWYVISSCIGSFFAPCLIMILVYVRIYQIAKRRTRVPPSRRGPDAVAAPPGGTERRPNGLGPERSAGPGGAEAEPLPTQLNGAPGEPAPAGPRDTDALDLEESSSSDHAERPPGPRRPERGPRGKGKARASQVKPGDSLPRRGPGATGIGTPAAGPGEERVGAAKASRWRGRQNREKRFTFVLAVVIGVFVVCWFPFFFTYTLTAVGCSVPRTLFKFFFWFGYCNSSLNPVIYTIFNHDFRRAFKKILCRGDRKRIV

T2: MAO-A (Rattus norvegicus (Rat)), P21396
T2 chain: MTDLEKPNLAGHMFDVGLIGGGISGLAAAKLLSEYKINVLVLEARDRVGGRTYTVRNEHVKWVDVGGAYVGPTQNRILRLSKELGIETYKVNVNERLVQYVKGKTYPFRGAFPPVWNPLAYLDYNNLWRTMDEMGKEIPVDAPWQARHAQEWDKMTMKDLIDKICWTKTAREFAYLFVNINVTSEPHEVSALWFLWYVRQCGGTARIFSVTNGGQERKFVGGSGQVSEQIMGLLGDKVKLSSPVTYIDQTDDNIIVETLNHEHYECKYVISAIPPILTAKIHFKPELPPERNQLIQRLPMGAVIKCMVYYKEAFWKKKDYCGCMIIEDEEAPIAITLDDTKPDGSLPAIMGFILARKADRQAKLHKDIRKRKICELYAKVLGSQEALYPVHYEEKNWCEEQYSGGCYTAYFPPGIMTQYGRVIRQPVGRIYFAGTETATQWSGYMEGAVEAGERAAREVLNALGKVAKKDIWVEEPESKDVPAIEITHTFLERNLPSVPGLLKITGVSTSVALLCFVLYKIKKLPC

T3: alpha 1A (h) (human), P35348
T3 chain: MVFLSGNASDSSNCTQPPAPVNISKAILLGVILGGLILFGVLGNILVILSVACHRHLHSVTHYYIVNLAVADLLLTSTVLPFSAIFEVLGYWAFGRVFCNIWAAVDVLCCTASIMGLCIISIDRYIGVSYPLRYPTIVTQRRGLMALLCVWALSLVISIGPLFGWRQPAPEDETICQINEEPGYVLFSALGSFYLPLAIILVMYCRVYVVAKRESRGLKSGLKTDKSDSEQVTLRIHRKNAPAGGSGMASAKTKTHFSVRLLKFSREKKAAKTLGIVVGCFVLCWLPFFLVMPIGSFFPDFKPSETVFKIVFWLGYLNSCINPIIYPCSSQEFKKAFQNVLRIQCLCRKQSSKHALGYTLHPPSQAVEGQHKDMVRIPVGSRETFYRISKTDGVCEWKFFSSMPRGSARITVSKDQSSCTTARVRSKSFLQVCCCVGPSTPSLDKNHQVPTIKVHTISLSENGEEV

T4: 5-HT3 (h) (human), P46098
T4 chain: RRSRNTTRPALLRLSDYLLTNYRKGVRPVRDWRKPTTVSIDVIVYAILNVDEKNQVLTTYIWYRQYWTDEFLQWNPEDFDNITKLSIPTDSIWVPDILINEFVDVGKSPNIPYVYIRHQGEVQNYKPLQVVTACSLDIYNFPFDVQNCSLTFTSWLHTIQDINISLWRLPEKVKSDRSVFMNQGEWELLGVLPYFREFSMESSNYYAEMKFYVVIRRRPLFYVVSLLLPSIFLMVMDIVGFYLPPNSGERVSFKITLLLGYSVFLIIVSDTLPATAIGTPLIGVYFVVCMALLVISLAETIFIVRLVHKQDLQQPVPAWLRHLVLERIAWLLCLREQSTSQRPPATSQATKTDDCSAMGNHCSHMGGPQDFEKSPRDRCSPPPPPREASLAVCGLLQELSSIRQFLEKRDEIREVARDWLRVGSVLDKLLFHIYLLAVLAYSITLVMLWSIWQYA

T5: M1 (h) (human), P11229
T5 chain: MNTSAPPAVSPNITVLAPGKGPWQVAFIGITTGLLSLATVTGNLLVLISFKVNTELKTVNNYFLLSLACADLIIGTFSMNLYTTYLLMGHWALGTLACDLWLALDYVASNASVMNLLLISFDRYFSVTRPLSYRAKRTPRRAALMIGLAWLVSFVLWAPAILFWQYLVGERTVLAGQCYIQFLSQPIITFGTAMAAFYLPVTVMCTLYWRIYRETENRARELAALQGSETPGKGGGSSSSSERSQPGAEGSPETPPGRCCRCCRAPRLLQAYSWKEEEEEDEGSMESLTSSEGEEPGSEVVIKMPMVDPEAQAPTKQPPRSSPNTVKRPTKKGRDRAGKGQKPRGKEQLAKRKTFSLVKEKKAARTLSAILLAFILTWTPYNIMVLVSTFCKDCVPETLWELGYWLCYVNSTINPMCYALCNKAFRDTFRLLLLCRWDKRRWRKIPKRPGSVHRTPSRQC

B1: Hex-[Cys(tMeBn(DOTA-PP))-Pro-Pro-Thr-Gln-Phe-Cys]-Asp-NH2 (peptide)
peptide: Hex-CPPTQFCD-NH2
modifications: bridge 1-7; not fully specified (bridges); printed as Hex-[Cys(tMeBn(DOTA-PP))-Pro-Pro-Thr-Gln-Phe-Cys]-Asp-NH2
B2: Hex-[Cys(tMeBn(DOTA-AET))-Pro-Pro-Thr-Gln-Phe-Cys]-OH (peptide)
peptide: Hex-CPPTQFC-OH
modifications: bridge 1-7; not fully specified (bridges); printed as Hex-[Cys(tMeBn(DOTA-AET))-Pro-Pro-Thr-Gln-Phe-Cys]-OH

What was measured:
Assay in all cases: radioligand displacement (antagonist radioligand), 10 µM
[1] = target: T1, alpha 2A (h) (human), P08913; conditions: remark: other sources report otherwise
[2] = target: T2, MAO-A (Rattus norvegicus (Rat)), P21396
[3] = target: Ca2+ channel (L, dihydropyridine site)
[4] = target: T3, alpha 1A (h) (human), P35348; conditions: remark: other sources report otherwise
[5] = target: 5-HT transporter (h) (human), P31645; conditions: remark: other sources report otherwise
M3 (h) (human), P20309 = conditions: remark: other sources report otherwise
[6] = target: T4, 5-HT3 (h) (human), P46098; conditions: remark: other sources report otherwise
[7] = target: beta 2 (h) (human), P07550; conditions: remark: other sources report otherwise
M1 (h) (human), P11229 = target: T5, M1 (h) (human), P11229; conditions: remark: other sources report otherwise
KV channel = target: KV channel

5-HT transporter (h) (human), P31645, sequence (P31645 whole entry): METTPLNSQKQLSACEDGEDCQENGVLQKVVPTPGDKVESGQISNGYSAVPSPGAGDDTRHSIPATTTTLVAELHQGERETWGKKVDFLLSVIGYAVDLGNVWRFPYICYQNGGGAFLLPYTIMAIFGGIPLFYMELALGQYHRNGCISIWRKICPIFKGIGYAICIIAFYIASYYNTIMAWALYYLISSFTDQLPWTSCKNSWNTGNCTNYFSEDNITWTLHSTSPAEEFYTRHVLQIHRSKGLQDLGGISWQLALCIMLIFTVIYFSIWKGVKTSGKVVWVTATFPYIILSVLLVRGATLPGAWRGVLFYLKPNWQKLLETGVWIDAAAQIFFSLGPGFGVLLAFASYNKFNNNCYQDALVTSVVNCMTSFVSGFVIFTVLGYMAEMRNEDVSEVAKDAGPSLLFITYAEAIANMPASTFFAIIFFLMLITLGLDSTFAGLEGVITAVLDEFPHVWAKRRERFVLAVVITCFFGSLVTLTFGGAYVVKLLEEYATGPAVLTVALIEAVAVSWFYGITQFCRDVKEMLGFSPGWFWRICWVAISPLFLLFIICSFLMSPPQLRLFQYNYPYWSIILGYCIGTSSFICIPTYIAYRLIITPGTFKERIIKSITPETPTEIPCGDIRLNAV
M3 (h) (human), P20309, sequence (P20309 whole entry): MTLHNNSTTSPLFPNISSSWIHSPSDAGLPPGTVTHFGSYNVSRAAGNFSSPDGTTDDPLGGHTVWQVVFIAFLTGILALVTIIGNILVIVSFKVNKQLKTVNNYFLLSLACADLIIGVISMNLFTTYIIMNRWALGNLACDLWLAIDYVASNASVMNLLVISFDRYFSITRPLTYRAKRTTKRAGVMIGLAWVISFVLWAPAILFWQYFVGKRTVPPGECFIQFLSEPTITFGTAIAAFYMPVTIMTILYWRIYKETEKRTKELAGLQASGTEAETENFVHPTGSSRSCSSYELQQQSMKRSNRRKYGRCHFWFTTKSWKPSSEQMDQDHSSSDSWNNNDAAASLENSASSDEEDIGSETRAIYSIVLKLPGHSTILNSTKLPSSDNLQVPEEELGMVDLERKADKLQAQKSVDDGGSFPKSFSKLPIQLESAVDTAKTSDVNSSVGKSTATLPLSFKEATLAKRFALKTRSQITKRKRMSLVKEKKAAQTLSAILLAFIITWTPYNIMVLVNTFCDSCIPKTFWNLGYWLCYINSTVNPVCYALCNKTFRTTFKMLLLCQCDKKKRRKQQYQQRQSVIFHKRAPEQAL

Binder	% Inhibition of Specific Binding [1] [%]	% Inhibition of Specific Binding [2] [%]	% Inhibition of Specific Binding [3] [%]	% Inhibition of Specific Binding [4] [%]	% Inhibition of Specific Binding [5] [%]	% Inhibition of Specific Binding (M3 (h) (human), P20309) [%]	% Inhibition of Specific Binding [6] [%]	% Inhibition of Specific Binding [7] [%]	% Inhibition of Specific Binding (M1 (h) (human), P11229) [%]	% Inhibition of Specific Binding (KV channel) [%]
B1	-9	-5	42	2	-3	10	2	4	6	-5
B2	2	-25	54	-12	-8	1	4	8	8	4
